Measured values: patent US20230265187A1 (published 2023)

T1: his-tagged human TIGIT (Acro Biosystems #TIT-H52H3) (human, UniProt Q495A1 22-141)
T1 construct: Bought protein; also called His-tagged-TIGIT (human); not shown: his tag
T1 sequence (looked up): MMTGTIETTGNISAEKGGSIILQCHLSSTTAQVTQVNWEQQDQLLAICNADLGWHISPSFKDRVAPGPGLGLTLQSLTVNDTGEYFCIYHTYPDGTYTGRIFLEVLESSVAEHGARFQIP

T2: his-tagged murine TIGIT (Acro Biosystems #TIT-M52E6) (murine, UniProt P86176 29-148, limits assumed)
T2 construct: Bought protein; also called mouse his-tagged TIGIT; not shown: his tag
T2 sequence (looked up): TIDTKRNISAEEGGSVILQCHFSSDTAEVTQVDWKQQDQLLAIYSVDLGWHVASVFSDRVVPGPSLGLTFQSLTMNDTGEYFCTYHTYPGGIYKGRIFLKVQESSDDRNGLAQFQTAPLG

T3: human TIGIT on Jurkat cells (TIGIT/NFAT reporter Jurkat cells, BPS Bioscience #60538); Promega TIGIT Effector … (human, UniProt Q495A1 22-244)
T3 sequence (looked up): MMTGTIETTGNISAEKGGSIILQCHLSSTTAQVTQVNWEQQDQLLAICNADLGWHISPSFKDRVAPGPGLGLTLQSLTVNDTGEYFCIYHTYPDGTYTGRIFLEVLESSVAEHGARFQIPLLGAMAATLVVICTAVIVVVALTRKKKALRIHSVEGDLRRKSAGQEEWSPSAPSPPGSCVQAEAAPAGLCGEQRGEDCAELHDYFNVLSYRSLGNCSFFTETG

B1: 43586p1.2.G10 (scFv, V domains shown)
VH: EVQLLESGGGLVQPGGSLRLSCAASGFTFDDYVMSWVRQAPGKELEWVSLINWNGDKTCYADSVKGRFTISRDNSKNTLYLQMNSLRAEDTAIYYCAKHWIVFQYGMDVWGQGTTVTVSS
VL: QSVLTQPPSASGTPGQRVTISCSGSISNIETKYVSWYQQLPGTAPKLLIYNSDQRPSGVPDRFSGSKSGTSASLAISGLQSEDEADYYCVSWDASLKSWVFGGGTKLTVL
B2: 43586p2.D11 (scFv, V domains shown)
VH: EVQLLESGGGLVQPGGSLRLSCAASGFTFDDYVMSWVRQAPGKGLEWVSLINWSGGTTYYADSVKGRFTISRDNSKNTLYLQMNSLRAEDTAVYYCAKHWIVYQYGMDVWGQGTTVTVSS
VL: QSVLTQPSSASGTPGQRVAISCSGTISNIETKYVSWYKYVSWYQQLPGTAPKLLIYNNVQRPSGVPDRFSGSQSGTSASLAISGLQSEDEAHYYCASWEGGLNSWVFGGGTKLTVL
B3: benchmark 22G2 (antibody, V domains shown)
VH: QVHLQESGPGLVKPSETLSLTCTVSGGSVSSGIYYWSWIRQPPGKGLEWIGYIYYSGSTNYNPSLKSRVTISVDTSKNQFSLKLSSVTAADTAVYYCARDYYVSGNYYNVDYYFFGVDVWGQGTTVTVSS
VL: EIVLTQSPATLSLSPGERATLSCRASQSVSSYLAWYQQKPGQAPRLLIYDASNRATGIPARFSGSGSGTDFTLTISSLEPEDFAVYYCQQRSNWPPLFTFGPGTKVDIK
B4: 43645p1.F11 (scFv, V domains shown)
VH: EVQLLESGGGLVQPGGSLRLSCAASGFTFSSYWMSWVRQAPGKGLEWVSGIHISDSTYYADSVKGRFTISRDNSKNTLYLQMNSLRAEDTAVYYCAKGHTVLQYGMDVWGQGTTVTVSS
VL: QSGLTQPPSASGTPGQRVTISCSGDISNTRNNYVSWYQQLPGTAPKLLIYRNSQRPSGVPDRFSGSKSATSASLAISGLQSEDEADYYCGTWDNTLNAWVFGGGTKLTVL
B5: 43352p1.H8 (scFv, V domains shown)
VH: DVQLVESGGGVVRPGESLRLSCAASGFNFSTYAMNWVRQAPGEGLEWVSGISGRSSGDTTYYADSVRGWFTVSRDNSKNTLYLQMSSLRAEDTAVYYCARETWIRGYFDYWGLGTLVTVSS
VL: QSVLTQPPSASGTPGQRVTISCSGSRSNLGNNLVYWYQQLPGTAPKLLIYFNNERPSGVPDRFSGSKSGTSASLAISGVQSEDEADYYCATWDDSLNGWVFGGGTKLTVL

Tests used:
[1] = molecular target: T4, His-tagged cynomolgus monkey TIGIT (Acro Biosystems #TIT-05223) (cynomolgus monkey, UniProt A0A7N9I9V4 89-209); test: SPR (Carterra LSA), scFv-Fc captured, His-TIGIT analyte
T4 construct: Bought protein; also called cyno TIGIT; cynomolgus TIGIT; not shown: His tag
T4 sequence (A0A7N9I9V4 entry or part of it): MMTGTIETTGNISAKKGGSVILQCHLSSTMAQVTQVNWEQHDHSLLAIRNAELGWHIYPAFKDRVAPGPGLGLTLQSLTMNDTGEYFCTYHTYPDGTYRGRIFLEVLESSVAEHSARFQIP
Summary of the method: (§1)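 Affinity from His-TIGIT analyte injected in 1:2 serial dilution over antibody captured as scFv-Fc via amine-coupled goat anti-human Fc on an HC30M surface. Supernatants diluted 30-fold in HBSTE; kinetic fitting.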

[2] = molecular target: T1, his-tagged human TIGIT (Acro Biosystems …); test: as above
Summary of the method: as §1

[3] = molecular target: T2, his-tagged murine TIGIT (Acro …); test: as above
Summary of the method: as §1

[4] = molecular target: T4, His-tagged cynomolgus monkey TIGIT …; test: ELISA, coated His-TIGIT, 1 ug/ml
[5] = molecular target: T1, his-tagged human TIGIT (Acro Biosystems …); test: ELISA, coated His-TIGIT, 1 ug/ml
[6] = molecular target: T2, his-tagged murine TIGIT (Acro …); test: ELISA, coated His-TIGIT, 1 ug/ml
[7] = molecular target: T3, human TIGIT on Jurkat cells (TIGIT/NFAT …); test: cell-based or functional assay
[8] = molecular target: T3, human TIGIT on Jurkat cells (TIGIT/NFAT …); test: flow cytometry, TIGIT/NFAT Jurkat cells, 10 ug/ml
[9] = molecular target: T4, His-tagged cynomolgus monkey TIGIT …; test: SPR (Carterra LSA), scFv-Fc captured, His-TIGIT analyte; repeat
[10] = molecular target: T2, his-tagged murine TIGIT (Acro …); test: as above
[11] = molecular target: T4, His-tagged cynomolgus monkey TIGIT …; test: SPR (Carterra LSA), antibody captured, His-TIGIT analyte
[12] = molecular target: T1, his-tagged human TIGIT (Acro Biosystems …); test: as above
[13] = molecular target: T4, His-tagged cynomolgus monkey TIGIT …; test: SPR (Carterra LSA), antibody captured, His-TIGIT analyte; repeat

Row | Binder | Kd [1] [nM] | Kd [2] [nM] | Kd [3] [nM] | Elisa OD450 [4] [OD450] | Elisa OD450 [5] [OD450] | Elisa OD450 [6] [OD450] | max. signal (% of 22G2) [7] | MFI [8] [MFI] | Kd [9] [nM] | Kd [10] [nM] | Kd [11] [nM] | Kd [12] [nM] | Kd [13] [nM]
1 | B1 | 14 | 0.941 | 15.6 | 1.52 | 1.99 | 2.1 | 96 % of 22G2 | 10100 | 6.3 | 10 |  |  | 
2 | B2 | 87.4 | 0.558 | 41.4 | 1.6 | 2.01 | 1.61 | 102 % of 22G2 | 9530 | 4.4 | 0.744 |  |  | 
3 | B3 |  |  |  |  |  |  |  |  |  |  | 16.1 | 0.202 | 3.4
4 | B4 | 33 | 0.322 | 235 | 1.8 | 2.03 | 1.85 | 100 % of 22G2 | 10900 | 16 | 91 |  |  | 
5 | B5 | 120 | 0.194 | 1.14 | 0.363 | 1.8 | 1.85 | 96 % of 22G2 | 10300 | 114 | 0.74 |  |  | 
